Assay results taken from publication PMC11249637, “Interaction of the Atypical Tetracyclines Chelocardin and Amidochelocardin with Renal Drug Transporters” (ACS Pharmacology & Translational Science, 2024).
Where “and” joins values, the source holds several entries; their conditions need not be identical. Equal entries are not always repeated.

What was measured:
[1] = tested on: organic anion transporters; set-up: method as in PMID 27499331; settings: cited from earlier work
[2] = tested on: p-gp; set-up: method as in PMID 27499331; settings: cited from earlier work
[3] = substrate: CC(=O)C1=C(O)[C@@H](N)[C@H]2Cc3c(c(O)c4c(O)c(C)ccc4c3C)C(=O)[C@@]2(O)C1=O; assay: Three-point uptake (substrate assessment) in mOat3-overexpressing HEK293 cells; type: in vitro ADME, mouse; settings: other: Michaelis–Menten fit, 0.1, 1 and 10 μM; 30.0 °C
Experimental: (§1) This is important to gain a better understanding of the underlying mechanisms of secretion into urine. Therefore, we assessed the amount of compound taken up by the vector and transporter cells at three different concentrations (1, 10, and 100 μM for mOat1 and mOct1; 0.1, 1, and 10 μM for mOat3) and at two different incubation periods (1 and 5 min for mOat1 and mOct1; 5 and 10 min for mOat3).
The incubation buffer contained CHD and CDCHD in a final concentration of 0.1, 1, and 10 μM. After 5 and 10 min, the incubation was terminated. In addition, the probe inhibitor probenecid (100 μM) was added in one concentration to 10 μM CHD and CDCHD, respectively, and after 5 and 10 min, the incubation was stopped. Inhibition of mOat3-mediated ^3H-ES (1 μM) uptake by 100 μM probenecid was performed as a control experiment. After 1 min, the incubation was terminated. […]
First, a calibration curve was prepared by spiking different concentrations of CHD and CDCHD into the cell matrix. […] Samples were analyzed using an Agilent 1290 Infinity II HPLC system coupled to an AB Sciex QTrap6500plus mass spectrometer. […]
(§2) For statistical testing of differences in uptake ratio or for the inhibitory effect, an ordinary one-way ANOVA test was performed using GraphPad Prism 9.5.1 software. […] Michaelis–Menten kinetics were determined using the Michaelis–Menten algorithm of GraphPad Prism 9.5.1 software. […]

[4] = substrate: CC(=O)C1=C(O)[C@@H](N)[C@H]2Cc3c(c(O)c4c(O)c(C)ccc4c3C)C(=O)[C@@]2(O)C1=O; assay: Three-point uptake (substrate assessment) in mOct1-overexpressing HEK293 cells; type: in vitro ADME, mouse; settings: other: Michaelis–Menten fit, 1, 10 and 100 μM; 30.0 °C
Experimental: as §1
(§3) The incubation buffer contained CHD and CDCHD in a final concentration of 1, 10, and 100 μM. After 1 and 5 min, the incubation was terminated. In addition, the probe inhibitor decynium22 (50 μM) was added in one concentration to 10 μM CHD and CDCHD, respectively, and after 1 and 5 min, the incubation was stopped. Inhibition of mOct1-mediated ^3H-MPP (10 μM) uptake by 50 μM decynium22 was performed as a control experiment. After 1 min, the incubation was terminated. All experiments were conducted in triplicate.
(§4) First, a calibration curve was prepared by spiking different concentrations of CHD and CDCHD into the cell matrix. Caffeine was used as an internal standard. In addition, quality control samples (QCs) were prepared for CHD and CDCHD in a cell matrix. The following extraction procedures were used: 300 μL of acetonitrile/water (1:1) is added to the cell pellet (sample or calibration/QC sample) for 15 min at 2000 rpm on an Eppendorf MixMate vortex mixer. 10 μL of this extracted sample is used for further analysis. 10 μL of the extracted cell sample is further extracted with 25 μL of a mixture of methanol/acetonitrile (2:1) containing 12.5 ng/mL caffeine as an internal standard (on ice) for 5 min at 2000 rpm on an Eppendorf MixMate vortex mixer. […] Samples were analyzed using an Agilent 1290 Infinity II HPLC system coupled to an AB Sciex QTrap6500plus mass spectrometer. […]
as §2

[5] = substrate: Cc1ccc2c(C)c3c(c(O)c2c1O)C(=O)[C@@]1(O)C(=O)C(C(N)=O)=C(O)[C@@H](N)[C@H]1C3; assay: as above; type: in vitro ADME, mouse; settings: other: Michaelis–Menten fit, 1, 10 and 100 μM; 30.0 °C
Experimental: as §1, §3, §4, §2

[6] = substrate: CC(=O)C1=C(O)[C@@H](N)[C@H]2Cc3c(c(O)c4c(O)c(C)ccc4c3C)C(=O)[C@@]2(O)C1=O; assay: Three-point uptake (substrate assessment) in mOat1-overexpressing HEK293 cells; type: in vitro ADME, mouse; settings: other: Michaelis–Menten fit, 1, 10 and 100 μM; 30.0 °C
Experimental: as §1
as §3, with “probenecid (100” for “decynium22 (50”, “mOat1-mediated ^3H-PAH” for “mOct1-mediated ^3H-MPP”, “100” for “50”, “probenecid” for “decynium22”
(§5) First, a calibration curve was prepared by spiking different concentrations of CHD and CDCHD into the cell matrix. Caffeine was used as an internal standard. In addition, quality control samples (QCs) were prepared for CHD and CDCHD in a cell matrix. The following extraction procedures were used: 300 μL of acetonitrile/water (1:1) is added to the cell pellet (sample or calibration/QC sample) for 15 min at 2000 rpm on an Eppendorf MixMate vortex mixer. 10 μL of this extracted sample is used for further analysis. 10 μL of the extracted cell sample is further extracted with 25 μL of a mixture of methanol/acetonitrile (2:1) containing 12.5 ng/mL caffeine as an internal standard (on ice) for 5 min at 2000 rpm on an Eppendorf MixMate vortex mixer. Then, samples were spun down at 15,870 × g for 10 min. Supernatants were transferred to standard HPLC glass vials. Samples were analyzed using an Agilent 1290 Infinity II HPLC system coupled to an AB Sciex QTrap6500plus mass spectrometer. LC conditions were as follows: column: Agilent Zorbax Eclipse Plus C18, 50 × 2.1 mm, 1.8 μm; temperature: 30°C; injection volume: 5 μL per sample; flow rate: 700 μL/min. Samples were run under the following conditions. Solvents: A: 100% water +0.1% formic acid; solvent B: 100% acetonitrile +0.1% formic acid. The gradient for CDCHD was as follows: 99% A at 0 min, 99% A until 0.1 min, 99–90% A from 0.1 to 1.0 min, 90–50% A from 1.0 to 2.4 min, 50–35% A from 2.4 to 2.7 min, 35–0% A from 2.7 until 4.5 min, 0% A until 5.5 min, 0–99% from 5.5 to 5.7 min, 99% A until 6.0 min. […]
as §2

[7] = substrate: Cc1ccc2c(C)c3c(c(O)c2c1O)C(=O)[C@@]1(O)C(=O)C(C(N)=O)=C(O)[C@@H](N)[C@H]1C3; assay: as above; type: in vitro ADME, mouse; settings: other: Michaelis–Menten fit, 1, 10 and 100 μM; 30.0 °C
Experimental: as §1
as §3, with “probenecid (100” for “decynium22 (50”, “mOat1-mediated ^3H-PAH” for “mOct1-mediated ^3H-MPP”, “100” for “50”, “probenecid” for “decynium22”
as §5, §2

For CN(C)c1cc(CNCC(C)(C)C)c(O)c2c1C[C@H]1C[C@H]3[C@H](N(C)C)C(O)=C(C(N)=O)C(=O)[C@@]3(O)C(O)=C1C2=O [omadacycline], the “substrate or inhibitor of organic anion transporters (in words)” value [1] is listed as “neither a substrate nor an inhibitor” and the Km [2] is listed as about 82 µM.

B1: mOat3 (Mus musculus) (protein)
chain: MTFSEILDRVGSMGPFQYLHVTLLALPILGIANHNLLQIFTATTPDHHCRPPPNASLEPWVLPLGPNGKPEKCLRFVHLPNASLPNDTQGATEPCLDGWIYNSTRDTIVTEWDLVCGSNKLKEMAQSVFMAGILVGGPVFGELSDRFGRKPILTWSYLLLAASGSSAAFSPSLTVYMIFRFLCGCSISGISLSTIILNVEWVPTSTRAISSTTIGYCYTIGQFILPGLAYAVPQWRWLQLSVSAAFFIFSLLSWWVPESIRWLVLSGKFSKALKTLQRVATFNGKKEEGEKLTVEELKFNLQKDITSAKVKYGLSDLFRVSILRRVTFCLSLAWFATGFAYYSLAMGVEEFGVNIYILQIIFGGVDIPAKFITILSISYLGRRITQGFLLILAGVAILALIFVSSEMQLLRTALAVFGKGCLSGSFSCLFLYTSELYPTVLRQTGMGISNIWARVGSMIAPLVKITGELQPFIPNVIFGTMTLLGGSAAFFLLETLNRPLPETIEDIQDWYQQTKKTKQEPEAEKASQTIPLKTGGP
notes: expressed in transfected cells; host or cells: HEK293
With B1 the Km [3] was 6.1 µM and 6 µM and the Vmax [3] was 26.42 nM/min.

B2: mOct1 (Mus musculus) (protein)
chain: MPTVDDVLEHVGEFGWFQKQAFLLLCLISASLAPIYVGIVFLGFTPDHHCRSPGVAELSQRCGWSPAEELNYTVPGLGSAGEASFLSQCMKYEVDWNQSTLDCVDPLSSLAANRSHLPLSPCEHGWVYDTPGSSIVTEFNLVCGDAWKVDLFQSCVNLGFFLGSLVVGYIADRFGRKLCLLVTTLVTSLSGVLTAVAPDYTSMLLFRLLQGMVSKGSWVSGYTLITEFVGSGYRRTTAILYQVAFTVGLVGLAGVAYAIPDWRWLQLAVSLPTFLFLLYYWFVPESPRWLLSQKRTTQAVRIMEQIAQKNRKVPPADLKMMCLEEDASERRSPSFADLFRTPSLRKHTLILMYLWFSCAVLYQGLIMHVGATGANLYLDFFYSSLVEFPAAFIILVTIDRIGRIYPIAASNLVAGAACLLMIFIPHELHWLNVTLACLGRMGATIVLQMVCLVNAELYPTFIRNLGMMVCSALCDLGGIFTPFMVFRLMEVWQALPLILFGVLGLSAGAVTLLLPETKGVALPETIEEAENLGRRKSKAKENTIYLQVQTGKSPHT
notes: as for B1
With B2 the Km [4] was 8.91 µM and 8.9 µM, the Vmax [4] was 49 nM/min and the Km [5] was 55.2 µM.

B3: mOat1 (Mus musculus) (protein)
chain: MAFNDLLKQVGGVGRFQLIQVTMVVAPLLLMASHNTLQNFTAAIPAHHCRPPANANLSKDGGLEAWLPLDKQGRPESCLRFPFPHNGTEANGTGVTEPCLDGWVYDNSTFPSTIVTEWNLVCSHRAFRQLAQSLFMVGVLLGAMMFGYLADRLGRRKVLILNYLQTAVSGTCAAYAPNYTVYCIFRLLSGMSLASIAINCMTLNMEWMPIHTRAYVGTLIGYVYSLGQFLLAGIAYAVPHWRHLQLAVSVPFFVAFIYSWFFIESARWYSSSGRLDLTLRALQRVARINGKQEEGAKLSIEVLQTSLQKELTLNKGQASAMELLRCPTLRRLFLCLSMLWFATSFAYYGLVMDLQGFGVSMYLIQVIFGAVDLPAKFVCFLVINSMGRRPAQLASLLLAGICILVNGIIPRGHTIIRTSLAVLGKGCLASSFNCIFLYTGELYPTMIRQTGLGMGSTMARVGSIVSPLISMTAEFYPSIPLFIFGAVPVAASAVTALLPETLGQPLPDTVQDLKSRSRGKQKQQQLEQQKQMIPLQVSTQEKNGL
notes: as for B1
In the case of B3, the Km [6] is reported as 65.08 µM, the Vmax [6] is reported as 82.38 nM/min and the Km [7] is reported as 39.64 µM. The Vmax [7] was 11.48 nM/min.
